In publication PMC7431413:

Biological target: recombinant tyrosine phosphorylated STAT3 dimer (pY705 STAT3-CF) (human) (UniProt P40763)
Experiment: SEC; purified STAT3-CF co-expressed with the ABL1 kinase domain; immunoblot for pY705

Substance: recombinant tyrosine phosphorylated STAT3 dimer (pY705 STAT3-CF) (from UniProt P40763 127-722) (domain or fragment)
- stoichiometry N: 2
